Measurements published in patent US5670340.

Columns and labels:
[1] = molecular target: fusion protein encoded by pG97S4DhCT(G)R5 (β-gal97S4D - linker R5 - hCT(G)) (Escherichia coli; human) [β-galactosidase: P00722]
[2] = molecular target: fusion protein encoded by pG97S4DhCT(G)R4 (β-gal97S4D - linker R4 - hCT(G)) (Escherichia coli; human) [β-galactosidase: P00722]
[3] = molecular target: β-gal97S4DhCNP-22R5-3 fusion protein (Escherichia coli; human) [β-galactosidase: P00722]
[4] = molecular target: β-gal97S4DhCNP-22R5-2 fusion protein (Escherichia coli; human) [β-galactosidase: P00722]
[5] = molecular target: β-gal97S4DhCNP-22R3-2 fusion protein (Escherichia coli; human) [β-galactosidase: P00722]

## V8 protease (from UniProt P0C1U8) (enzyme)
[1]
  cleavage efficiency (hCT(G) released, HPLC): 7%
[2]
  cleavage efficiency (hCT(G) released, HPLC): 97%
[3]
  release efficiency of human CNP-22 (HPLC): 92%
[4]
  release efficiency of human CNP-22 (HPLC): 95%
[5]
  release efficiency of human CNP-22 (HPLC): 99%
